Columns and labels:
[1] = biological target: EfmRseP with the triple alanine substitution of the HExxH motif (Enterococcus faecium P21) (UniProt I3U2R6)
[2] = biological target: EfmRseP with substitution N359A (Enterococcus faecium P21) (UniProt I3U2R6)
[3] = biological target: Fusion of LpRseP (1–201, 328–425) and EfmRseP (202–327) (Lactiplantibacillus plantarum WCFS1 | Enterococcus faecium P21) (UniProt I3U2R6)
[4] = biological target: Truncation of EfmRseP (1–39, 139–422) Δ40–138 (Enterococcus faecium P21) (UniProt I3U2R6)
[5] = biological target: Fusion of EfmRseP (1–170) and LpRseP (171–425) (Enterococcus faecium P21 | Lactiplantibacillus plantarum WCFS1) (UniProt I3U2R6)
[6] = biological target: EfmRseP with substitution P367A (Enterococcus faecium P21) (UniProt I3U2R6)
[7] = biological target: Fusion of LpRseP (1–201, 222–425) and EfmRseP (202–221) (Lactiplantibacillus plantarum WCFS1 | Enterococcus faecium P21) (UniProt I3U2R6)
[8] = biological target: Fusion of EfmRseP (1–32) and LpRseP (33–425) (Enterococcus faecium P21 | Lactiplantibacillus plantarum WCFS1) (UniProt I3U2R6)
[9] = biological target: Fusion of LpRseP (1–221) and EfmRseP (222–422) (Lactiplantibacillus plantarum WCFS1 | Enterococcus faecium P21) (UniProt I3U2R6)
[10] = biological target: EfmRseP with substitution N364A (Enterococcus faecium P21) (UniProt I3U2R6)
[11] = biological target: EfmRseP with substitution H22A (Enterococcus faecium P21) (UniProt I3U2R6)
[12] = biological target: RseP from Lactiplantibacillus plantarum WCFS1, C-terminal 6× His-tag (Lactiplantibacillus plantarum WCFS1)
[13] = biological target: Fusion of LpRseP (1–171, 222–425) and EfmRseP (172–221) (Lactiplantibacillus plantarum WCFS1 | Enterococcus faecium P21) (UniProt I3U2R6)
[14] = biological target: RseP from Enterococcus faecium P21, C-terminal 6× His-tag (Enterococcus faecium P21) (UniProt I3U2R6)
[15] = biological target: Fusion of LpRseP (1–328) and EfmRseP (329–422) (Lactiplantibacillus plantarum WCFS1 | Enterococcus faecium P21) (UniProt I3U2R6)
[16] = biological target: Fusion of LpRseP (1–171, 326–425) and EfmRseP (172–325) (Lactiplantibacillus plantarum WCFS1 | Enterococcus faecium P21) (UniProt I3U2R6)
[17] = biological target: EfmRseP with substitution H18A (Enterococcus faecium P21) (UniProt I3U2R6)
[18] = biological target: Fusion of EfmRseP (1–325) and LpRseP (326–425) (Enterococcus faecium P21 | Lactiplantibacillus plantarum WCFS1) (UniProt I3U2R6)
[19] = biological target: EfmRseP with substitution D372A (Enterococcus faecium P21) (UniProt I3U2R6)
[20] = biological target: Fusion of EfmRseP (1–221) and LpRseP (222–425) (Enterococcus faecium P21 | Lactiplantibacillus plantarum WCFS1) (UniProt I3U2R6)
[21] = biological target: EfmRseP with substitution P369A (Enterococcus faecium P21) (UniProt I3U2R6)
[22] = biological target: EfmRseP with substitution E19A (Enterococcus faecium P21) (UniProt I3U2R6)
[23] = biological target: Fusion of EfmRseP (1–200) and LpRseP (201–425) (Enterococcus faecium P21 | Lactiplantibacillus plantarum WCFS1) (UniProt I3U2R6)
[24] = biological target: RseP from Lactiplantibacillus plantarum WCFS1, without His-tag (Lactiplantibacillus plantarum WCFS1)
[25] = biological target: RseP from Enterococcus faecium P21, without His-tag (Enterococcus faecium P21) (UniProt I3U2R6)
[26] = biological target: RseP from Staphylococcus haemolyticus, without His-tag (Staphylococcus haemolyticus)
[27] = biological target: RseP from Lactococcus lactis IL1403, without His-tag (Lactococcus lactis IL1403)
[28] = biological target: RseP from Staphylococcus aureus ATCC 14458, without His-tag (Staphylococcus aureus ATCC 14458)
[29] = biological target: RseP from Staphylococcus arlettae LMGT 4134, without His-tag (Staphylococcus arlettae LMGT 4134)
[30] = biological target: RseP from Enterococcus faecalis V583, without His-tag (Enterococcus faecalis V583) (UniProt Q9RPP2)

In the case of Enterocin K1 (peptide), the MIC50 of EntK1 (growth inhibition, microtiter plate) towards L. plantarum expressing this RseP variant [1] was 2.7 µM, the MIC50 of EntK1 (growth inhibition, microtiter plate) towards L. plantarum expressing this RseP variant [2] was > 22 µM and the MIC50 of EntK1 (growth inhibition, microtiter plate) towards L. plantarum expressing this RseP variant [3] was 0.09 µM. The MIC50 of EntK1 (growth inhibition, microtiter plate) towards L. plantarum expressing this RseP variant [4] was 2.7 µM, the MIC50 of EntK1 (growth inhibition, microtiter plate) towards L. plantarum expressing this RseP variant [5] was > 22 µM and the MIC50 of EntK1 (growth inhibition, microtiter plate) towards L. plantarum expressing this RseP variant [6] was 0.004 µM. The MIC50 of EntK1 (growth inhibition, microtiter plate) towards L. plantarum expressing this RseP variant [7] was > 22 µM, the MIC50 of EntK1 (growth inhibition, microtiter plate) towards L. plantarum expressing this RseP variant; footnote: low expression may contribute [8] was > 22 µM and the MIC50 of EntK1 (growth inhibition, microtiter plate) towards L. plantarum expressing this RseP variant [9] was > 22 µM. The MIC50 of EntK1 (growth inhibition, microtiter plate) towards L. plantarum expressing this RseP variant [10] was 0.004 µM, the MIC50 of EntK1 (growth inhibition, microtiter plate) towards L. plantarum expressing this RseP variant [11] was 0.01 µM and the MIC50 of EntK1 (growth inhibition, microtiter plate) towards L. plantarum expressing this RseP variant [12] was > 22 µM. For the same substance, the MIC50 of EntK1 (growth inhibition, microtiter plate) towards L. plantarum expressing this RseP variant [13] was > 22 µM, the MIC50 of EntK1 (growth inhibition, microtiter plate) towards L. plantarum expressing this RseP variant [14] was < 0.002 µM and the MIC50 of EntK1 (growth inhibition, microtiter plate) towards L. plantarum expressing this RseP variant [15] was > 22 µM. For the same substance, the MIC50 of EntK1 (growth inhibition, microtiter plate) towards L. plantarum expressing this RseP variant [16] was < 0.002 µM, the MIC50 of EntK1 (growth inhibition, microtiter plate) towards L. plantarum expressing this RseP variant [17] was 0.02 µM and the MIC50 of EntK1 (growth inhibition, microtiter plate) towards L. plantarum expressing this RseP variant [18] was < 0.002 µM. For the same substance, the MIC50 of EntK1 (growth inhibition, microtiter plate) towards L. plantarum expressing this RseP variant [19] was 0.7 µM, the MIC50 of EntK1 (growth inhibition, microtiter plate) towards L. plantarum expressing this RseP variant [20] was 0.7 µM and the MIC50 of EntK1 (growth inhibition, microtiter plate) towards L. plantarum expressing this RseP variant [21] was < 0.02 µM. For the same substance, the MIC50 of EntK1 (growth inhibition, microtiter plate) towards L. plantarum expressing this RseP variant [22] was 0.01 µM, the MIC50 of EntK1 (growth inhibition, microtiter plate) towards L. plantarum expressing this RseP variant [23] was > 22 µM and the MIC50 of EntK1 (growth inhibition, microtiter plate) towards L. plantarum expressing this RseP [24] was > 22 µM. The MIC50 of EntK1 (growth inhibition, microtiter plate) towards L. plantarum expressing this RseP [25] was 0.01 µM, the MIC50 of EntK1 (growth inhibition, microtiter plate) towards L. plantarum expressing this RseP [26] was 0.17 µM and the MIC50 of EntK1 (growth inhibition, microtiter plate) towards L. plantarum expressing this RseP [27] was 0.09 µM. The MIC50 of EntK1 (growth inhibition, microtiter plate) towards L. plantarum expressing this RseP; footnote: low expression may contribute [28] was > 22 µM, the MIC50 of EntK1 (growth inhibition, microtiter plate) towards L. plantarum expressing this RseP; footnote: low expression may contribute [29] was > 22 µM and the MIC50 of EntK1 (growth inhibition, microtiter plate) towards L. plantarum expressing this RseP [30] was 0.04 µM.

Source: publication PMC9672952
